The results in this text go back to US20130324409A1 (University of California, published 2013).

The target of one data set is T1, GST-HAB1 (Arabidopsis, UniProt Q9CAJ0 23-511).
T1 sequence (looked up): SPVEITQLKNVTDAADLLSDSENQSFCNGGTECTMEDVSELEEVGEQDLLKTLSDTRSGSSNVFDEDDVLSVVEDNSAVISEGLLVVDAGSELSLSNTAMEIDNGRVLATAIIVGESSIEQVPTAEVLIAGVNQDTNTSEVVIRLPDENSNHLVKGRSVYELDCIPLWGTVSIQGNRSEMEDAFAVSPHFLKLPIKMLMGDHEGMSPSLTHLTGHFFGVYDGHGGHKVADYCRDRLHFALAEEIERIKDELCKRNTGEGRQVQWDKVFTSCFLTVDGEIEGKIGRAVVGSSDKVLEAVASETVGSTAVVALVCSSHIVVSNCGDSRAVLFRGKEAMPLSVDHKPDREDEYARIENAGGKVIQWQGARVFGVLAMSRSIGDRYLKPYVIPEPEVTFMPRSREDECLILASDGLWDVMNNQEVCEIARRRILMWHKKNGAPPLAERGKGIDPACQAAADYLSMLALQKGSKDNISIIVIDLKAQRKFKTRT
The data set can be described thus: cell-based or functional assay.

The target of data set [1] is T2, ABI2^G168D encoded by abi2-1 (yeast two-hybrid construct) (UniProt O04719 1-423).
T2 construct: ABA insensitive mutant protein; also called mutant protein encoded by abi2-1
T2 sequence (looked up): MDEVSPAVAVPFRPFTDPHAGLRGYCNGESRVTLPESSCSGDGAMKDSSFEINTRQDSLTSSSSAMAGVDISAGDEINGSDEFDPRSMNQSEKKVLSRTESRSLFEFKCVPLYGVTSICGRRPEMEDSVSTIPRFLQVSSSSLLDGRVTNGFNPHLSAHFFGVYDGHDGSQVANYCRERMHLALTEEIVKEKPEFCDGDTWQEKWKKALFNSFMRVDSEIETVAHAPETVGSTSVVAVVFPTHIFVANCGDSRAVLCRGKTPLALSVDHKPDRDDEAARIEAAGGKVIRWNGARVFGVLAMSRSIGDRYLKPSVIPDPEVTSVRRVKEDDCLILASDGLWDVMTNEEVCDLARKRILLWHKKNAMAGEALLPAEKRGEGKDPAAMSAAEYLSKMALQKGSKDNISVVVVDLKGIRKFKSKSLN
The data set can be described thus: yeast two-hybrid.

Data set [2] deals with T3, ABI1 (yeast two-hybrid construct) (UniProt P49597 1-434).
T3 construct: also called wild type ABI1; cDNA C104649
T3 sequence (looked up): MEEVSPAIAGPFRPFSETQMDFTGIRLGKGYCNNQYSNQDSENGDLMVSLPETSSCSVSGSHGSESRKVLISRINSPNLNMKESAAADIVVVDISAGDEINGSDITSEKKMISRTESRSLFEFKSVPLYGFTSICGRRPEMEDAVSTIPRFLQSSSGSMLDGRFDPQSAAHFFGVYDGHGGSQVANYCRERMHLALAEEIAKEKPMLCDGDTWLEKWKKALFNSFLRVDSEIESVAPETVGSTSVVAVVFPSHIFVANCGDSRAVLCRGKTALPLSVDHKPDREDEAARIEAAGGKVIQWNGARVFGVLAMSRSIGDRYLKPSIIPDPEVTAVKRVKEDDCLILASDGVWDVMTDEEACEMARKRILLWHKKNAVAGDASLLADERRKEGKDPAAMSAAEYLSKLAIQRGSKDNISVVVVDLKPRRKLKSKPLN
In words: yeast two-hybrid.

Data set [3] addresses T4, ABI2 (yeast two-hybrid construct) (UniProt O04719 1-423).
T4 construct: also called wild type ABI2; cDNA U24491
T4 sequence (looked up): T2 sequence (looked up) with D168G
The data set can be described thus: yeast two-hybrid.

In a further data set the target is T5, GST-ABI2 (UniProt O04719 1-423).
T5 construct: Used as cleared E. coli lysate in the pull-downs; not shown: glutathione S-transferase (GST)
T5 sequence (looked up): T2 sequence (looked up) with D168G
In words: His-tag pull-down, E. coli lysate holding the PP2C. As to the method: (§1) To explore the functional implications of the PYR1-PP2C interaction, we examined if an ABA response could be reconstituted in vitro. Recombinant GST-HAB1, GST-ABI1 and GST-ABI2 were expressed in E. coli and tested for ligand-dependent interactions with 6×His-PYR1 in pull-down assays. Purified 6×His-PYR1 and GST-HAB1 (20 and 100 μg respectively, 8 μM PYR1 final concentration), were combined in 100 μl TBS containing 10 μM (+)-ABA or 1% DMSO for negative control. The reaction was incubated for 90 minutes at RT and 5 μl of PrepEase (USB) His-tagged protein purification resin was added. The resin and reaction mixture was incubated 30 min at RT with gentle shaking at 5 min intervals. The resin was washed five times with TBS containing 10 μM (+)-ABA. After the final wash, the bound protein was eluted in 20 μl SDS-PAGE buffer, boiled for 5 minutes and centrifuged. 5 μl of eluate was analyzed on SDS-PAGE. For pull-downs with ABI1 and ABI2, crude lysates were used in a similar method, except purified PP2C was replaced with cleared E. coli lysates. The amount of lysate added was determined by SDS-page analysis to yield ˜100 μg PP2C, such that the same stoichiometry was used as in assays using purified proteins.

The next data set deals with T6, GST-ABI1 (UniProt P49597 1-434).
T6 construct: Used as cleared E. coli lysate in the pull-downs; not shown: glutathione S-transferase (GST)
T6 sequence (looked up): T3 sequence (looked up)
The data set can be described thus: His-tag pull-down, E. coli lysate holding the PP2C. The method, then: as §1

Data set [4] concerns the target T7, PYL4 6×His-tagged protein.
T7 chain: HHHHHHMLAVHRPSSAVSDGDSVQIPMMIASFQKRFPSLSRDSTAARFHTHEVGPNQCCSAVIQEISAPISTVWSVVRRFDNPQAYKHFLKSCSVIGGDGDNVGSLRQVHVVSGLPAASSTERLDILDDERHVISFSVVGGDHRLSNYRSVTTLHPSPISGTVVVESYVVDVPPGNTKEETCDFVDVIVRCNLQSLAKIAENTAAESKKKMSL

Substitutions are numbered along the chain they refer to. Names and notes keep the numbering of the source.

B1: 6×His-PYR1 (receptor, not shown: small tags and cut ends)
chain: MPSELTPEERSELKNSIAEFHTYQLDPGSCSSLHAQRIHAPPELVWSIVRRFDKPQTYKHFIKSCSVEQNFEMRVGCTRDVIVISGLPANTSTERLDILDDERRVTGFSIIGGEHRLTNYKSVTTVHRFEKENRIWTVVLESYVVDMPEGNSEDDTRMFADTVVKLNLQKLATVAEAMARNSGDGSGSQVT
B1: in the data set with GST-HAB1, the “IC50 of (+)-ABA for inhibition of HAB1 phosphatase activity (substrate pNPP) in the presence of PYR1” value was 0.18 µM.

B2: BD-PYR1 fusion protein (receptor, not shown: large carriers; small tags and cut ends)
chain: B1 chain
notes: Pyr1 open reading frame cloned in frame into pBD-GAL4 Cam, expressed in yeast Y190; also called PYR1 Y2H bait construct; PYRABACTIN … 1
In the case of B2, the figures for the binding result in data set [1], in data set [2] and in data set [3] were “no binding”, “binds” and “binds”, respectively.

B3: 6×His-PYR1^P88S (receptor)
chain: B1 chain with P88S
notes: also called pyr1-3 mutant protein; not shown: 6×His tag and vector residues of pET28
On to B3, for which the binding result with GST-ABI2 and with GST-ABI1 was “no binding (tested: 10 µM (+)-ABA)” each time.

B4: GST-HAB1 (protein)
chain: T1 sequence (looked up)
Regarding B4, the “HAB1 phosphatase activity (substrate pNPP)” value in data set [4] is recorded as “(+)-ABA inhibits HAB1 phosphatase activity in the presence of PYL4”.
